Assay results published in patent US6541450B1, “Parathyroid hormone analogues for the treatment of osteoporosis” (National Research Council of Canada, priority 1994, dated 2003).
Where a SMILES comes first, the peptide text is derived from it. Bridges are numbered along the chain shown (N, C = ends). Where no end group is shown, it is not given here. [ ]: non-standard residue; d: D form. Orn = NCCC[C@H](N)C(=O)O

Tests used:
[1] = biological target: T1, adenylyl cyclase, ROS 17/2 cells (Rattus norvegicus, UniProt P25961); assay: Adenylyl cyclase stimulation, [3H]-cyclic AMP production in ROS 17/2 cells; format: cell-based; conditions: ROS 17/2 cells; concentration for half-maximal increase in AC activity; read-out: Adenylyl Cyclase (EC50)
T1 sequence (P25961 27-591): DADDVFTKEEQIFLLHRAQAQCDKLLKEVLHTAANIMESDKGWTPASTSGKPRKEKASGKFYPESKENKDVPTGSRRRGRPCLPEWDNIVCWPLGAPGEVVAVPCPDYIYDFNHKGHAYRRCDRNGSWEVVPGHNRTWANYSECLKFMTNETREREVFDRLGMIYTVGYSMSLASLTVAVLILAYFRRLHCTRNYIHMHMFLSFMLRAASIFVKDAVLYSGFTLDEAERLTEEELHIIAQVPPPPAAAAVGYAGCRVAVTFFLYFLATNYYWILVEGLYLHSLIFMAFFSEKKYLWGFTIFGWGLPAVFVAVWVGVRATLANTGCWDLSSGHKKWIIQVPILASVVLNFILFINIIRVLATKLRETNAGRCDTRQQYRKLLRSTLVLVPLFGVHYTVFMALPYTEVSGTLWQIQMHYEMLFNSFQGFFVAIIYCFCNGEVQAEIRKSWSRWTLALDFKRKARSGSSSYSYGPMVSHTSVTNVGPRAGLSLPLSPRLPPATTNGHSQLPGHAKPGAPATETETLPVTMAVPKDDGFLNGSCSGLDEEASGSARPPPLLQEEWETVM

PTH receptor = PTH receptor (rat (ROS 17/2 rat osteosarcoma cell …, UniProt P25961)); assay: cell-based or functional assay

CC[C@H](C)[C@H](NC(=O)[C@H](CCC(=O)O)NC(=O)[C@H](CO)NC(=O)[C@@H](NC(=O)[C@@H](N)CO)C(C)C)C(=O)N[C@@H](CCC(N)=O)C(=O)N[C@@H](CC(C)C)C(=O)N[C@@H](CCSC)C(=O)N[C@@H](Cc1c[nH]cn1)C(=O)N[C@@H](CC(N)=O)C(=O)N[C@@H](CC(C)C)C(=O)NCC(=O)N[C@@H](CCCCN)C(=O)N[C@@H](Cc1c[nH]cn1)C(=O)N[C@@H](CC(C)C)C(=O)N[C@@H](CC(N)=O)C(=O)N[C@@H](CO)C(=O)N[C@@H](CCSC)C(=O)N[C@@H](CCC(=O)O)C(=O)N[C@@H](CCCNC(=N)N)C(=O)N[C@H](C(=O)N[C@H]1CCC(=O)NCCCC[C@@H](C(=O)N[C@@H](C)C(=O)N[C@@H](CC(C)C)C(=O)N[C@@H](CCC(N)=O)C(=O)N[C@@H](CC(=O)O)C(=O)N[C@H](C(N)=O)C(C)C)NC(=O)[C@H](CCCNC(=N)N)NC(=O)[C@H](CC(C)C)NC(=O)[C@H](Cc2c[nH]c3ccccc23)NC1=O)C(C)C [[Ala^27]cyclo(Glu^22—Lys^26)—hPTH—(1-31)-NH2] (H-SVSEIQLMHNLGKHLNSMERVEWLRKALQDV-NH2; lactam 22-26; N-terminus assumed)
EC50 [1]: 9 nM

B1: [Leu^27]cyclo(Glu^22-Lys^26)-hPTH-(1-34)-OH (peptide)
peptide: SVSEIQLMHNLGKHLNSMERVEWLRKLLQDVHNF-OH
modifications: lactam 22-26; N-terminus assumed
SMILES: CC[C@H](C)[C@H](NC(=O)[C@H](CCC(=O)O)NC(=O)[C@H](CO)NC(=O)[C@@H](NC(=O)[C@@H](N)CO)C(C)C)C(=O)N[C@@H](CCC(N)=O)C(=O)N[C@@H](CC(C)C)C(=O)N[C@@H](CCSC)C(=O)N[C@@H](Cc1c[nH]cn1)C(=O)N[C@@H](CC(N)=O)C(=O)N[C@@H](CC(C)C)C(=O)NCC(=O)N[C@@H](CCCCN)C(=O)N[C@@H](Cc1c[nH]cn1)C(=O)N[C@@H](CC(C)C)C(=O)N[C@@H](CC(N)=O)C(=O)N[C@@H](CO)C(=O)N[C@@H](CCSC)C(=O)N[C@@H](CCC(=O)O)C(=O)N[C@@H](CCCNC(=N)N)C(=O)N[C@H](C(=O)N[C@H]1CCC(=O)NCCCC[C@@H](C(=O)N[C@@H](CC(C)C)C(=O)N[C@@H](CC(C)C)C(=O)N[C@@H](CCC(N)=O)C(=O)N[C@@H](CC(=O)O)C(=O)N[C@H](C(=O)N[C@@H](Cc2c[nH]cn2)C(=O)N[C@@H](CC(N)=O)C(=O)N[C@@H](Cc2ccccc2)C(=O)O)C(C)C)NC(=O)[C@H](CCCNC(=N)N)NC(=O)[C@H](CC(C)C)NC(=O)[C@H](Cc2c[nH]c3ccccc23)NC1=O)C(C)C
Adenylyl Cyclase (EC50) (PTH receptor): 6 nM

SVSEIQLMHNLGKHLNSMERVEWLRKLLQDV-OH (lactam 22-26) [[Leu^27]cyclo(Glu^22-Lys^26)-hPTH-(1-31)-OH]
Adenylyl Cyclase (EC50) (PTH receptor): 7 nM

B2: [Cys^26, Cys^30, Leu^27]cyclo(Cys^26-Cys^30)-hPTH-(1-31)-NH2 (peptide)
peptide: SVSEIQLMHNLGKHLNSMERVEWLRCLLQCV-NH2
modifications: disulfide 26-30; N-terminus assumed
SMILES: CC[C@H](C)[C@H](NC(=O)[C@H](CCC(=O)O)NC(=O)[C@H](CO)NC(=O)[C@@H](NC(=O)[C@@H](N)CO)C(C)C)C(=O)N[C@@H](CCC(N)=O)C(=O)N[C@@H](CC(C)C)C(=O)N[C@@H](CCSC)C(=O)N[C@@H](Cc1c[nH]cn1)C(=O)N[C@@H](CC(N)=O)C(=O)N[C@@H](CC(C)C)C(=O)NCC(=O)N[C@@H](CCCCN)C(=O)N[C@@H](Cc1c[nH]cn1)C(=O)N[C@@H](CC(C)C)C(=O)N[C@@H](CC(N)=O)C(=O)N[C@@H](CO)C(=O)N[C@@H](CCSC)C(=O)N[C@@H](CCC(=O)O)C(=O)N[C@@H](CCCNC(=N)N)C(=O)N[C@H](C(=O)N[C@@H](CCC(=O)O)C(=O)N[C@@H](Cc1c[nH]c2ccccc12)C(=O)N[C@@H](CC(C)C)C(=O)N[C@@H](CCCNC(=N)N)C(=O)N[C@H]1CSSC[C@@H](C(=O)N[C@H](C(N)=O)C(C)C)NC(=O)[C@H](CCC(N)=O)NC(=O)[C@H](CC(C)C)NC(=O)[C@H](CC(C)C)NC1=O)C(C)C
Adenylyl Cyclase (EC50) (PTH receptor): 24 nM

B3: [Leu^27]cyclo(Lys^22-Glu^26)-hPTH-(1-31)-NH2 (peptide)
peptide: SVSEIQLMHNLGKHLNSMERVKWLRELLQDV-NH2
modifications: lactam 22-26; N-terminus assumed
SMILES: CC[C@H](C)[C@H](NC(=O)[C@H](CCC(=O)O)NC(=O)[C@H](CO)NC(=O)[C@@H](NC(=O)[C@@H](N)CO)C(C)C)C(=O)N[C@@H](CCC(N)=O)C(=O)N[C@@H](CC(C)C)C(=O)N[C@@H](CCSC)C(=O)N[C@@H](Cc1c[nH]cn1)C(=O)N[C@@H](CC(N)=O)C(=O)N[C@@H](CC(C)C)C(=O)NCC(=O)N[C@@H](CCCCN)C(=O)N[C@@H](Cc1c[nH]cn1)C(=O)N[C@@H](CC(C)C)C(=O)N[C@@H](CC(N)=O)C(=O)N[C@@H](CO)C(=O)N[C@@H](CCSC)C(=O)N[C@@H](CCC(=O)O)C(=O)N[C@@H](CCCNC(=N)N)C(=O)N[C@H](C(=O)N[C@H]1CCCCNC(=O)CC[C@@H](C(=O)N[C@@H](CC(C)C)C(=O)N[C@@H](CC(C)C)C(=O)N[C@@H](CCC(N)=O)C(=O)N[C@@H](CC(=O)O)C(=O)N[C@H](C(N)=O)C(C)C)NC(=O)[C@H](CCCNC(=N)N)NC(=O)[C@H](CC(C)C)NC(=O)[C@H](Cc2c[nH]c3ccccc23)NC1=O)C(C)C
Adenylyl Cyclase (EC50) (PTH receptor): 4 nM

B4: [Leu^27]cyclo(Glu^22-Lys^26)-hPTH-(1-30)-NH2 (peptide)
peptide: SVSEIQLMHNLGKHLNSMERVEWLRKLLQD-NH2
modifications: lactam 22-26; N-terminus assumed
SMILES: CC[C@H](C)[C@H](NC(=O)[C@H](CCC(=O)O)NC(=O)[C@H](CO)NC(=O)[C@@H](NC(=O)[C@@H](N)CO)C(C)C)C(=O)N[C@@H](CCC(N)=O)C(=O)N[C@@H](CC(C)C)C(=O)N[C@@H](CCSC)C(=O)N[C@@H](Cc1c[nH]cn1)C(=O)N[C@@H](CC(N)=O)C(=O)N[C@@H](CC(C)C)C(=O)NCC(=O)N[C@@H](CCCCN)C(=O)N[C@@H](Cc1c[nH]cn1)C(=O)N[C@@H](CC(C)C)C(=O)N[C@@H](CC(N)=O)C(=O)N[C@@H](CO)C(=O)N[C@@H](CCSC)C(=O)N[C@@H](CCC(=O)O)C(=O)N[C@@H](CCCNC(=N)N)C(=O)N[C@H](C(=O)N[C@H]1CCC(=O)NCCCC[C@@H](C(=O)N[C@@H](CC(C)C)C(=O)N[C@@H](CC(C)C)C(=O)N[C@@H](CCC(N)=O)C(=O)N[C@@H](CC(=O)O)C(N)=O)NC(=O)[C@H](CCCNC(=N)N)NC(=O)[C@H](CC(C)C)NC(=O)[C@H](Cc2c[nH]c3ccccc23)NC1=O)C(C)C
Adenylyl Cyclase (EC50) (PTH receptor): 20 nM

B5: [Cys^22, Cys^26, Leu^27]cyclo(Cys^22-Cys^26)-hPTH-(1-31)-NH2 (peptide)
peptide: SVSEIQLMHNLGKHLNSMERVCWLRCLLQDV-NH2
modifications: disulfide 22-26; N-terminus assumed
SMILES: CC[C@H](C)[C@H](NC(=O)[C@H](CCC(=O)O)NC(=O)[C@H](CO)NC(=O)[C@@H](NC(=O)[C@@H](N)CO)C(C)C)C(=O)N[C@@H](CCC(N)=O)C(=O)N[C@@H](CC(C)C)C(=O)N[C@@H](CCSC)C(=O)N[C@@H](Cc1c[nH]cn1)C(=O)N[C@@H](CC(N)=O)C(=O)N[C@@H](CC(C)C)C(=O)NCC(=O)N[C@@H](CCCCN)C(=O)N[C@@H](Cc1c[nH]cn1)C(=O)N[C@@H](CC(C)C)C(=O)N[C@@H](CC(N)=O)C(=O)N[C@@H](CO)C(=O)N[C@@H](CCSC)C(=O)N[C@@H](CCC(=O)O)C(=O)N[C@@H](CCCNC(=N)N)C(=O)N[C@H](C(=O)N[C@H]1CSSC[C@@H](C(=O)N[C@@H](CC(C)C)C(=O)N[C@@H](CC(C)C)C(=O)N[C@@H](CCC(N)=O)C(=O)N[C@@H](CC(=O)O)C(=O)N[C@H](C(N)=O)C(C)C)NC(=O)[C@H](CCCNC(=N)N)NC(=O)[C@H](CC(C)C)NC(=O)[C@H](Cc2c[nH]c3ccccc23)NC1=O)C(C)C
Adenylyl Cyclase (EC50) (PTH receptor): 16 nM

B6: [Leu^27]cyclo(Asp^22-Orn^26)-hPTH-(1-31)-NH2 (peptide)
peptide: SVSEIQLMHNLGKHLNSMERVDWLR[Orn]LLQDV-NH2
modifications: lactam 22-26; N-terminus assumed
SMILES: CC[C@H](C)[C@H](NC(=O)[C@H](CCC(=O)O)NC(=O)[C@H](CO)NC(=O)[C@@H](NC(=O)[C@@H](N)CO)C(C)C)C(=O)N[C@@H](CCC(N)=O)C(=O)N[C@@H](CC(C)C)C(=O)N[C@@H](CCSC)C(=O)N[C@@H](Cc1c[nH]cn1)C(=O)N[C@@H](CC(N)=O)C(=O)N[C@@H](CC(C)C)C(=O)NCC(=O)N[C@@H](CCCCN)C(=O)N[C@@H](Cc1c[nH]cn1)C(=O)N[C@@H](CC(C)C)C(=O)N[C@@H](CC(N)=O)C(=O)N[C@@H](CO)C(=O)N[C@@H](CCSC)C(=O)N[C@@H](CCC(=O)O)C(=O)N[C@@H](CCCNC(=N)N)C(=O)N[C@H](C(=O)N[C@H]1CC(=O)NCCC[C@@H](C(=O)N[C@@H](CC(C)C)C(=O)N[C@@H](CC(C)C)C(=O)N[C@@H](CCC(N)=O)C(=O)N[C@@H](CC(=O)O)C(=O)N[C@H](C(N)=O)C(C)C)NC(=O)[C@H](CCCNC(=N)N)NC(=O)[C@H](CC(C)C)NC(=O)[C@H](Cc2c[nH]c3ccccc23)NC1=O)C(C)C
Adenylyl Cyclase (EC50) (PTH receptor): > 200 nM
